Laboratory results reported in patent publication US20030157712A1 (VANDERBILT UNIVERSITY, published 2003).

Target: T1, endogenous EphB2 receptor of HRMEC (human, UniProt P29323 19-1055)
T1 construct: whole, on cells; also called Nuk
T1 sequence (looked up): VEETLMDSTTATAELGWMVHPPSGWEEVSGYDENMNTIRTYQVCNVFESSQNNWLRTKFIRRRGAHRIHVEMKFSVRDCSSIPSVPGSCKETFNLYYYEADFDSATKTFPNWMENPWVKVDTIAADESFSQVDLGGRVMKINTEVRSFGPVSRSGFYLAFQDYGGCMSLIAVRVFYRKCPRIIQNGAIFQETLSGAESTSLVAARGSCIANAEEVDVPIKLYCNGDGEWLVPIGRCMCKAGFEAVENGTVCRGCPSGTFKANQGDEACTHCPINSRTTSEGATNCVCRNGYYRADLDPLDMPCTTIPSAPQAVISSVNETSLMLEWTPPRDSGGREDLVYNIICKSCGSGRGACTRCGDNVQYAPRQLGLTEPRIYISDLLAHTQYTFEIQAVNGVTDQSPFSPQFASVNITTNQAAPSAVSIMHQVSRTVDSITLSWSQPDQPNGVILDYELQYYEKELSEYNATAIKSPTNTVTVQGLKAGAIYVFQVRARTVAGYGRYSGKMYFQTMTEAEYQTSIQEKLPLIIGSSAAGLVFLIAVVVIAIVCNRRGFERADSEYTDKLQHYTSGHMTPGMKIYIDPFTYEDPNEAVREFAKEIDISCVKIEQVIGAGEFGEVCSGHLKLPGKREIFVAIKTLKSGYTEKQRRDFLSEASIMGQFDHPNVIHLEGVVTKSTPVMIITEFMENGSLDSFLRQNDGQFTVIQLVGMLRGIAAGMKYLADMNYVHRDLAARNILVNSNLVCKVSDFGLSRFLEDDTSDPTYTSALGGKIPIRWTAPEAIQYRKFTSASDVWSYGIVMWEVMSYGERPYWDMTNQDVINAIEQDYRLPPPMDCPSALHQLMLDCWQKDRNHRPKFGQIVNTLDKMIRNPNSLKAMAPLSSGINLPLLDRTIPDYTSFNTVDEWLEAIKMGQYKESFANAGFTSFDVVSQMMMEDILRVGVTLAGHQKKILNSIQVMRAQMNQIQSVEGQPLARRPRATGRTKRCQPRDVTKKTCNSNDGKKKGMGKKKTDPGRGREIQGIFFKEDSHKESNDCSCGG
Assay: co-immunoprecipitation from HRMEC stimulated with dimeric or multimeric ephrin-B1/Fc, immunoblot
Experimental: Ligand stimulation and immunoprecipitation of endogenous EphB receptors. Primary HRMEC were used at passages 3-6, as described (12). […] Ninety min prior to ligand stimulation, cells (2×10⁵cells/60 mm dish) were plated on Matrigel-(Collaborative Biomedical Products, Becton Dickinson, Bedford, Mass., as recommended) or fibronectin-coated (29) dishes. […] Cells were incubated with agonists at 37° C. for 10 min, or as described in the figure legends. Immunoprecipitations were conducted on either cell lysates (P19) or on Triticum vulgaris lectin affinity purified fractions of HRMEC (15) (needed to reduce the background from Matrigel). Precipitated proteins were analyzed by immunoblot (15).

B1: endogenous EphB1 receptor of human endothelial cells (HRMEC; HUVEC) (receptor, UniProt P54762 18-984, looked up)
chain: MEETLMDTRTATAELGWTANPASGWEEVSGYDENLNTIRTYQVCNVFEPNQNNWLLTTFINRRGAHRIYTEMRFTVRDCSSLPNVPGSCKETFNLYYYETDSVIATKKSAFWSEAPYLKVDTIAADESFSQVDFGGRLMKVNTEVRSFGPLTRNGFYLAFQDYGACMSLLSVRVFFKKCPSIVQNFAVFPETMTGAESTSLVIARGTCIPNAEEVDVPIKLYCNGDGEWMVPIGRCTCKPGYEPENSVACKACPAGTFKASQEAEGCSHCPSNSRSPAEASPICTCRTGYYRADFDPPEVACTSVPSGPRNVISIVNETSIILEWHPPRETGGRDDVTYNIICKKCRADRRSCSRCDDNVEFVPRQLGLTECRVSISSLWAHTPYTFDIQAINGVSSKSPFPPQHVSVNITTNQAAPSTVPIMHQVSATMRSITLSWPQPEQPNGIILDYEIRYYEKEHNEFNSSMARSQTNTARIDGLRPGMVYVVQVRARTVAGYGKFSGKMCFQTLTDDDYKSELREQLPLIAGSAAAGVVFVVSLVAISIVCSRKRAYSKEAVYSDKLQHYSTGRGSPGMKIYIDPFTYEDPNEAVREFAKEIDVSFVKIEEVIGAGEFGEVYKGRLKLPGKREIYVAIKTLKAGYSEKQRRDFLSEASIMGQFDHPNIIRLEGVVTKSRPVMIITEFMENGALDSFLRQNDGQFTVIQLVGMLRGIAAGMKYLAEMNYVHRDLAARNILVNSNLVCKVSDFGLSRYLQDDTSDPTYTSSLGGKIPVRWTAPEAIAYRKFTSASDVWSYGIVMWEVMSFGERPYWDMSNQDVINAIEQDYRLPPPMDCPAALHQLMLDCWQKDRNSRPRFAEIVNTLDKMIRNPASLKTVATITAVPSQPLLDRSIPDFTAFTTVDDWLSAIKMVQYRDSFLTAGFTSLQLVTQMTSEDLLRIGITLAGHQKKILNSIHSMRVQISQSPTAMA
notes: whole, on cells; In the co-precipitation entries the receptor was tyrosine phosphorylated after stimulation of the cells; also called ELK
  binding result: no binding
